Source: patent US20210063414A1, “METHODS FOR PREVENTING AND/OR TREATING BONE LOSS CONDITIONS BY MODULATING IRISIN” (Dana-Farber Cancer Institute, Inc., priority 2018, published 2021)

Biological target: T1, MLO-Y4 cell surface proteins (Mus musculus, UniProt Q8VCI5)
T1 construct: endogenous in cells; host or cells: MLO-Y4
T1 sequence (Q8VCI5 1-299): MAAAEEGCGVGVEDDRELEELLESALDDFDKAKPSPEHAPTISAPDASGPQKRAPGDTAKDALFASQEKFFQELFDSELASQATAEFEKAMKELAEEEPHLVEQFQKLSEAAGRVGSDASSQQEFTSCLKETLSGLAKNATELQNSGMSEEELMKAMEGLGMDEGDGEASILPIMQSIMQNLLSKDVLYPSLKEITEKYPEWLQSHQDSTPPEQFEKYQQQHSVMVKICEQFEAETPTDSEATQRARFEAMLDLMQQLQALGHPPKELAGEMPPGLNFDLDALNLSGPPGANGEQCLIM
Assay: Crosslinking/co-immunoprecipitation/mass spectrometry (TMT quantitative proteomics) to identify irisin receptors
Assay type: binding
Details: co-precipitated protein Pex19 (PEX19_MOUSE)
Method in brief: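 Relative protein abundance came from 6-plex TMT MS3 quantitation on an Orbitrap Fusion Lumos, after in-gel trypsin digestion of Coomassie-stained SDS-PAGE lanes. Input was a Ni-NTA pulldown (250 mM imidazole elution) of lysates from murine MLO-Y4 cells. These cells were treated on ice with His-tagged irisin or adipsin (10 nM, 20 min) in serum-free medium, then crosslinked with 1.5 mM DTSSP for 30 min.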

TMT signal-to-noise ratio: 60.4801
Substance: adipsin
